B1: TPTE2 peptide 94-109 (Phosphatidylinositol 3,4,5-trisphosphate 3-phosphatase TPTE2), 16-mer library wild type / TLN1 PTB (TLN1 Phosphotyrosine-binding (PTB) domain, residues 309-401) (parent)
chain 1: DLIFTDSKLYIPLEYR
chain 2: GVSFFLVKEKMKGKNKLVPRLLGITKECVMRVDEKTKEVIQEWNLTNIKRWAASPKSFTLDFGDYQDGYYSVQTTEGEQIAQLIAGYIDIILK
B2: PEX5 peptide 238-253 (Peroxisomal targeting signal 1 receptor), 16-mer library wild type / PEX14 Pex14 (PEX14 PEX14, residues 16-84) (parent)
chain 1: AQAEQWAAEFIQQQGT
chain 2: TPGSENVLPREPLIATAVKFLQNSRVRQSPLATRRAFLKKKGLTDEEIDMAFQQSGTAADEPSSLGPAT
B3: SH3BP2 peptide 410-425 (SH3 domain-binding protein 2), 16-mer library wild type / TNKS ANK (TNKS 12 ANK repeats, residues 174-649) (parent)
chain 1: LPHLQRSPPDGQSFRS
chain 2: TGVPAVSGALRELLEACRNGDVSRVKRLVDAANVNAKDMAGRKSSPLHFAAGFGRKDVVEHLLQMGANVHARDDGGLIPLHNACSFGHAEVVSLLLCQGADPNARDNWNYTPLHEAAIKGKIDVCIVLLQHGADPNIRNTDGKSALDLADPSAKAVLTGEYKKDELLEAARSGNEEKLMALLTPLNVNCHASDGRKSTPLHLAAGYNRVRIVQLLLQHGADVHAKDKGGLVPLHNACSYGHYEVTELLLKHGACVNAMDLWQFTPLHEAASKNRVEVCSLLLSHGADPTLVNCHGKSAVDMAPTPELRERLTYEFKGHSLLQAAREADLAKVKKTLALEIINFKQPQSHETALHCAVASLHPKRKQVTELLLRKGANVNEKNKDFMTPLHVAAERAHNDVMEVLHKHGAKMNALDTLGQTALHRAALAGHLQTCRLLLSYGSDPSIISLQGFTAAQMGNEAVQQILSESTPIRTSD

Variants of: B1
Test: proteomic peptide phage display deep mutational scan (ProP-PD DMS): M13 P8 16-mer library selected against immobilised GST-tagged bait for four days (rounds), NGS of the eluted pools per day and pseudo-replica
Conditions: with TLN1 PTB (TLN1 Phosphotyrosine-binding (PTB) domain, residues 309-401); bait immobilised on MaxiSorp plates (10 µg), library pre-cleared on GST, 2 h binding at 4 °C, five washes; one round per day, days 1-4; value from days 2 and 3; keep out of graded; scale: average fractional NGS count over selection days 2 and 3

Variant	screen value
chain 1 I3Q	0.00339
chain 1 I3K	0.00351
chain 1 I3D	0.0027
chain 1 I3F	0.0002
chain 1 I3N	0.00121
chain 1 I3A	2.4e-05
chain 1 I3G	0.000109
chain 1 I3T	0.00253
chain 1 I3V	0.00384
chain 1 I3Y	0.000244
chain 1 I3R	0.00161
chain 1 I3W	0.000147
chain 1 I3H	4.16e-05
chain 1 I3E	0.00388
chain 1 I3L	0.00133
chain 1 I3M	0.000353
chain 1 I3S	0.000211
chain 1 L2T	0.000185
chain 1 L2G	0.000486
chain 1 L2Y	0.000116
chain 1 L2W	4.75e-05
chain 1 L2D	9.22e-05
chain 1 L2A	0.000378
chain 1 L2N	2.74e-05
chain 1 L2E	0.000516
chain 1 L2V	0.00592

Variant	screen value
chain 1 L2P	0.000184
chain 1 L2F	5.85e-05
chain 1 L2I	0.000173
chain 1 L2H	0.000178
chain 1 L2S	3.05e-05
chain 1 L2Q	0
chain 1 L2M	0.00204
chain 1 I11L	0.00308
chain 1 I11Y	5.14e-05
chain 1 I11Q	7.15e-05
chain 1 I11D	2.74e-05
chain 1 I11K	3.45e-05
chain 1 I11V	0.0012
chain 1 I11M	3.76e-05
chain 1 I11R	0.000323
chain 1 I11S	7.21e-05
chain 1 I11F	6.22e-05
chain 1 I11T	0.000474
chain 1 I11N	7.83e-05
chain 1 I11H	0.000432
chain 1 I11E	0.000129
chain 1 D6H	3.45e-05
chain 1 D6W	3.79e-05
chain 1 D6T	0.000144
chain 1 D6N	6.84e-05
chain 1 D6S	0.000216

Variant	screen value
chain 1 D6E	0.000625
chain 1 D6G	0
chain 1 D6Y	3.05e-05
chain 1 D6M	0
chain 1 D6A	3.11e-05
chain 1 F4W	0.00189
chain 1 F4T	0
chain 1 E14G	0.00107
chain 1 E14F	9.64e-05
chain 1 E14D	0.00114
chain 1 E14A	0.00053
chain 1 E14W	2.8e-05
chain 1 E14L	6.19e-05
chain 1 E14V	3.45e-05
chain 1 E14T	0.000246
chain 1 E14Q	0.000195
chain 1 E14P	0.00048
chain 1 E14H	9.43e-05
chain 1 E14K	0.000193
chain 1 E14S	6.5e-05
chain 1 D1K	0
chain 1 D1S	0.000249
chain 1 D1F	2.74e-05
chain 1 D1T	0.000148
chain 1 D1P	0.00123
chain 1 D1G	0.00013

Variant	screen value
chain 1 D1W	4.41e-05
chain 1 D1Q	3.51e-05
chain 1 D1E	0.000184
chain 1 D1N	7.86e-05
chain 1 D1I	0
chain 1 D1H	0
chain 1 D1A	9.19e-05
chain 1 K8I	0
chain 1 K8Y	9.03e-05
chain 1 K8P	0.0034
chain 1 K8R	0.00105
chain 1 K8V	0
chain 1 K8N	0.000705
chain 1 K8L	0.000141
chain 1 K8H	0.00014
chain 1 K8A	0.0039
chain 1 K8D	0.00103
chain 1 K8Q	0.00121
chain 1 K8S	0.00137
chain 1 K8G	0.000416
chain 1 K8E	0.000109
chain 1 K8M	0.000286
chain 1 K8T	9.24e-05
chain 1 L13N	6.62e-05
chain 1 L13Y	0
chain 1 L13A	0.0028

Variant	screen value
chain 1 L13E	5.82e-05
chain 1 L13K	0.00129
chain 1 L13D	3.05e-05
chain 1 L13V	4.1e-05
chain 1 L13R	0.000367
chain 1 L13P	0.000483
chain 1 L13S	0.0004
chain 1 L13Q	0.000253
chain 1 L13I	0.00223
chain 1 L13H	2.74e-05
chain 1 L13M	0.00103
chain 1 L13T	0.000339
chain 1 L13G	0.000105
chain 1 L9M	4.46e-05
chain 1 L9T	2.4e-05
chain 1 L9V	0.000711
chain 1 L9G	0.000626
chain 1 L9D	0
chain 1 L9R	0
chain 1 L9I	0.000157
chain 1 L9N	0
chain 1 L9A	0.00044

Further lines, results first:

screen value	Variant
0	chain 1 P12W
0	chain 1 P12A
0	chain 1 P12E
0.000118	chain 1 T5I
4.81e-05	chain 1 T5S
0.000105	chain 1 T5F
0	chain 1 T5D
5.61e-05	chain 1 T5H
0.000128	chain 1 T5N
0.00155	chain 1 T5V
0.000584	chain 1 T5E
0	chain 1 T5L
0.00106	chain 1 T5Q
4.49e-05	chain 1 T5W
0	chain 1 T5R
0	chain 1 T5K
8.75e-05	chain 1 T5Y
4.1e-05	chain 1 Y15R
0.00208	chain 1 Y15W
0.000539	chain 1 Y15K
0.000355	chain 1 Y15H

screen value	Variant
0.000157	chain 1 Y15F
0.00117	chain 1 Y15P
0.00244	chain 1 Y15E
0.00819	chain 1 Y15A
0.000939	chain 1 Y15G
0.00364	chain 1 Y15I
0.00294	chain 1 Y15D
0.000703	chain 1 Y15V
0.00054	chain 1 Y15S
0.00052	chain 1 Y15L
0.0011	chain 1 Y15T
0.00159	chain 1 Y15M
0.00142	chain 1 Y15Q
0.000999	chain 1 Y15N
0	chain 1 Y10R
6.96e-05	chain 1 Y10F
0.00022	chain 1 Y10W
0	chain 1 S7D
6.44e-05	chain 1 S7T
0	chain 1 S7A
0.000778	chain 1 S7N

Variants of: B2
Test: as above
Conditions: with PEX14 Pex14 (PEX14 PEX14, residues 16-84); bait immobilised on MaxiSorp plates (10 µg), library pre-cleared on GST, 2 h binding at 4 °C, five washes; one round per day, days 1-4; value from days 2 and 3; keep out of graded; scale: average fractional NGS count over selection days 2 and 3

Variant	screen value
chain 1 F10I	0.000137
chain 1 A7G	0.00166
chain 1 A7F	0.000286
chain 1 A7L	0.00129
chain 1 A7I	0.000152
chain 1 I11H	0.00108
chain 1 I11G	0.000289
chain 1 I11V	0
chain 1 I11K	0.000266
chain 1 I11S	0.000456
chain 1 G15K	0
chain 1 G15W	0.000703
chain 1 G15D	0.000327
chain 1 E9M	0.000215
chain 1 E9S	0.000566
chain 1 E9G	0.000159
chain 1 A3W	0
chain 1 A8Q	0.00013
chain 1 A8M	0.0014
chain 1 A8V	0.00138
chain 1 A8S	0.000444

Now from value to variant:

screen value	Variant
0.000898	chain 1 W6F
0	chain 1 Q5F
0	chain 1 Q5K
0.000881	chain 1 T16N
0	chain 1 T16G
0.000223	chain 1 T16S
0.00206	chain 1 T16V
0.00132	chain 1 T16H
0.00055	chain 1 Q12S
0.000368	chain 1 Q12G
0.000355	chain 1 Q12W
0	chain 1 Q12E
0.00226	chain 1 Q12M
0.000758	chain 1 Q2S
0.00111	chain 1 Q13L
0.0013	chain 1 Q14R
0.000215	chain 1 Q14F
0.000732	chain 1 Q14H

Variants of: B3
Test: as above
Conditions: with TNKS ANK (TNKS 12 ANK repeats, residues 174-649); bait immobilised on MaxiSorp plates (10 µg), library pre-cleared on GST, 2 h binding at 4 °C, five washes; one round per day, days 1-4; value from days 2 and 3; keep out of graded; scale: average fractional NGS count over selection days 2 and 3

Variant	screen value
chain 1 P2W	0
chain 1 P2Y	4.27e-05
chain 1 P2K	3.03e-05
chain 1 H3K	5.51e-05
chain 1 H3D	4.19e-05
chain 1 H3S	9.56e-05
chain 1 H3R	3.96e-05
chain 1 L4K	3.15e-05
chain 1 L4R	2.25e-05
chain 1 D10R	4.95e-05
chain 1 D10N	0
chain 1 D10M	3.11e-05
chain 1 D10S	7.49e-05
chain 1 D10F	0
chain 1 D10W	7.2e-05
chain 1 D10H	0
chain 1 P9L	0
chain 1 P9I	4.06e-05
chain 1 G11A	0
chain 1 G11L	0
chain 1 G11R	2.25e-05
chain 1 G11D	0.000101
chain 1 G11E	0
chain 1 P8W	7.62e-05
chain 1 P8G	8.51e-05
chain 1 P8F	0.000116
chain 1 F14R	2.25e-05

Now from value to variant:

screen value	Variant
0	chain 1 S7G
1.87e-05	chain 1 S7W
8.68e-05	chain 1 S7A
8.27e-05	chain 1 S7R
0	chain 1 R6K
4.06e-05	chain 1 R6V
0	chain 1 R6T
0	chain 1 R6E
0	chain 1 R6A
0	chain 1 R6Q
6.18e-05	chain 1 Q5R
7.42e-05	chain 1 Q5I
0	chain 1 S13K
3.04e-05	chain 1 S13R
0.000125	chain 1 S13W
0	chain 1 P9V
0.000123	chain 1 P9M
6.89e-05	chain 1 Q12D
6.14e-05	chain 1 Q12R
0.000124	chain 1 R15Y
